Reference: US20150320860A1 (published 2015)
Numbering of substitutions follows the chain as printed.

B1: anti-ADDL antibody 19.3 (antibody, V domains shown)
VH: EVQLVESGGGLVQPGGSLRLSCAASGFTFSSFGMHWVRQAPGKGLEWVAYISRGSSTIYYADTVKGRFTISRDNAKNSLYLQMNSLRAEDTAVYYCARGITTALDYWGQGTLVTVSS
VL: DVVMTQSPLSLPVTPGEPASISCRSSQSIVHSNGNTYLEWYLQKPGQSPQLLIYKASNRFSGVPDRFSGSGSGTDFTLKISRVEAEDVGVYYCFQGSRLGPSFGQGTKLEIKR
notes: copies: 2 + 2
B2: antibody 19.3 N33T (antibody, IgG2, V domains shown)
VH: B1 VH
VL: DVVMTQSPLSLPVTPGEPASISCRSSQSIVHSTGNTYLEWYLQKPGQSPQLLIYKASNRFSGVPDRFSGSGSGTDFTLKISRVEAEDVGVYYCFQGSRLGPSFGQGTKLEIL
notes: also called 19.3T33
B3: humanized anti-ADDL antibody h3B3 (antibody, V domains shown)
VH: B1 VH
VL: B2 VL with T33N, R98H, L99V, G100P, S102T, L112K
notes: Parental humanized antibody; also called humanized 3B3; h3B3 (parental)
B4: antibody 19.3 N33S (antibody, IgG2, V domains shown)
VH: B1 VH
VL: B2 VL with T33S
notes: also called 19.3S33
B5: antibody 19.3 N33D (antibody, V domains shown)
VH: B1 VH
VL: B2 VL with T33D
notes: Made as a control

What was measured:
Aβ1-40 monomer [1] = biological target: T1, Aβ1-40 monomer (UniProt P05067 672-711); assay: one-sided ELISA, Aβ1-40 coated at 100 pmol/well (FIG. 7A)
T1 construct: domain: Aβ1-40; also called Aβ40; monomer Aβ (Aβ1-40)
Description: (§1) EC₅₀ represents the half-maximal total Aβ oligomer binding. […] Next day, plates were washed five times with PBS+0.05% TWEEN 20 and blocked overnight with casein blocking buffer (Thermo Scientific, Waltham, Mass.) and 0.05% TWEEN 20. […] After two hours at room temperature incubation, the plates were washed and alkaline phosphatase-conjugated anti-human IgG (ThermoScientific, Waltham, Mass.) was added at 0.08 μg/ml. After incubation for 45 minutes at room temperature, the plates were washed and TROPIX CDP star (Applied Biosystems, Foster City, Calif.) was added. Luminescence was detected after […] on an ENVISION plate reader (PerkinElmer, Waltham, Mass.). Curve fits were completed using GraphPad Prism (GraphPad Software, Inc., San Diego, Calif.) software.

[2] = biological target: T2, Aβ-derived diffusible ligands (ADDLs), soluble oligomers of synthetic Aβ1-42 (UniProt P05067 672-713); assay: one-sided ELISA, Aβ oligomers coated at 50 pmol/well (FIG. 7A)
T2 construct: domain: Aβ1-42; number of copies is not fixed; also called synthetic ADDLs; Aβ oligomers
Description: as §1

[3] = biological target: T2, Aβ-derived diffusible ligands (ADDLs), …; assay: three-pronged sandwich ELISA (Aβ forms captured by polyclonal M90/1), single antibody concentration; signal on ADDLs over signal on fibrillar Aβ
Description: (§2) ELISA. […] Monoclonal antibodies diluted in BSA/TBS were incubated for 90 minutes at room temperature and detected with a VECTASTAIN® ABC kit to mouse IgG. The HRP label was visualized with BIO-RAD peroxidase substrate and read at 405 nm on a Dynex MRX-TC microplate reader.

[4] = biological target: T3, biotinylated ADDLs (bADDLs) (UniProt P05067 672-713, N-terminal biotin); assay: cell-based assay: antibody pre-incubated with 500 nM bADDLs in the presence of excess Aβ monomer, block of bADDL binding to primary neurons
T3 construct: domain: Aβ1-42; Oligomer mixture; copies not fixed
Description: (§3) As a control, the same concentration of heat-denatured antibody (98° C. for […]) was mixed with bADDLs. The antibody-bADDL mixtures were incubated in siliconized microcentrifuge tubes (Fischer Scientific, Pittsburgh, Pa.) at 37° C. for one hour with constant end-to-end rotation at a low speed. The mixtures were then applied to primary hippocampal and/or cortical cultures and incubated at 37° C. for one hour. The incubation was terminated by removing the culture medium. Cells were subjected to fixation and post-fixation treatments. Cells were then incubated with streptavidin conjugated with alkaline phosphate (AP) at 4° C. overnight, washed five times with PBS and reacted with the TROPIX CDP-Star chemiluminescent substrate (Life Technologies, Carlsbad, Calif.) at room temperature for 30 minutes. The bADDL binding intensity was measured and recorded with an ENVISION microplate reader (PerkinElmer, Waltham, Mass.).

[5] = biological target: T2, Aβ-derived diffusible ligands (ADDLs), …; assay: KINEXA; constant for Aβ1-40 over constant for ADDLs
[6] = biological target: T2, Aβ-derived diffusible ligands (ADDLs), …; assay: BIACORE (SPR); affinity for Aβ1-40 over affinity for ADDLs
[7] = biological target: T2, Aβ-derived diffusible ligands (ADDLs), …; assay: BIACORE (SPR)
Aβ1-40 monomer [8] = biological target: T1, Aβ1-40 monomer; assay: BIACORE (SPR)
Aβ1-40 monomer [9] = biological target: T1, Aβ1-40 monomer; assay: ELISA on coated antigen, chemiluminescence; antibody stored at 25°, 1 month
Description: (§4) High protein binding plates (Costar, Corning, Lowell, Mass.), were coated with target ligand in PBS overnight at 4° C. […] One the next day, plates were washed five times with PBS+0.05% TWEEN 20 (Sigma Aldrich, St. Louis, Mo.) and blocked overnight with casein blocking buffer (Thermo Scientific, Waltham, Mass.) and 0.05% TWEEN 20. […] After 2 hours at room temperature incubation, the plates were washed and alkaline phosphatase-conjugated anti-human IgG (ThermoScientific, Waltham, Mass.) was added at 0.08 μg/ml. After 45 minutes at room temperature incubation, the plates were washed and TROPIX CDP-Star chemiluminescent substrate (LIFE TECHNOLOGIES, Carlsbad, Calif.) was added. Luminescence was detected after 30 minutes on an ENVISION microplate reader (PerkinElmer, Waltham, Mass.). Curve fits were completed using […] PRISM software (GraphPad Software, Inc., San Diego, Calif.).

[10] = biological target: T3, biotinylated ADDLs (bADDLs); assay: as above
Description: as §4

[11] = biological target: T2, Aβ-derived diffusible ligands (ADDLs), …; assay: three-pronged sandwich ELISA (Aβ forms captured by polyclonal M90/1), single antibody concentration; signal on ADDLs over signal on monomer Aβ
Description: as §2

[12] = biological target: T2, Aβ-derived diffusible ligands (ADDLs), …; assay: competitive ELISA
Description: The plates were incubated for one and half hours at room temperature. Both detection of residual antibody binding and the EC₅₀ calculations were determined as in the one-sided ELISA assay.

[13] = biological target: T2, Aβ-derived diffusible ligands (ADDLs), …; assay: ELISA; IgG2
Aβ1-42 monomer = biological target: T4, Aβ1-42 monomer (UniProt P05067 672-713); assay: ELISA; IgG2
T4 construct: domain: Aβ1-42

Aβ1-40 monomer [14] = biological target: T1, Aβ1-40 monomer; assay: ELISA on coated antigen, chemiluminescence; antibody at 0 timepoint
Description: as §4

[15] = biological target: T3, biotinylated ADDLs (bADDLs); assay: as above
Description: as §4

[16] = biological target: T3, biotinylated ADDLs (bADDLs); assay: cell-based assay: antibody pre-incubated with 500 nM bADDLs, block of bADDL binding to primary neurons
Description: as §3

[17] = biological target: T2, Aβ-derived diffusible ligands (ADDLs), …; assay: KINEXA, equilibrium constant in solution
Aβ1-40 monomer [18] = biological target: T1, Aβ1-40 monomer; assay: KINEXA, equilibrium constant in solution
Aβ1-40 monomer [19] = biological target: T1, Aβ1-40 monomer; assay: ELISA on coated antigen, chemiluminescence; antibody stored at 4°, 1 month
Description: as §4

[20] = biological target: T3, biotinylated ADDLs (bADDLs); assay: as above
Description: as §4

Aβ1-40 monomer [21] = biological target: T1, Aβ1-40 monomer; assay: ELISA on coated antigen, chemiluminescence; antibody stored at 40°, 1 month
Description: as §4

[22] = biological target: T3, biotinylated ADDLs (bADDLs); assay: as above
Description: as §4

[23] = biological target: T2, Aβ-derived diffusible ligands (ADDLs), …; assay: one-sided ELISA (FIG. 7A)
Description: as §1

Row | Binder | Kd (Aβ1-40 monomer [8]) [nM] | EC50 (Aβ1-40 monomer [9]) [nM] | EC50 [10] [nM] | EC50 [13] [nM] | EC50 (Aβ1-42 monomer) [nM] | EC50 (Aβ1-40 monomer [14]) [nM] | EC50 [15] [nM] | Kd (Aβ1-40 monomer [18]) [nM] | EC50 (Aβ1-40 monomer [19]) [nM] | EC50 [20] [nM] | EC50 (Aβ1-40 monomer [21]) [nM] | EC50 [22] [nM] | other results
1 | B1 | 150 | 22.1 | 2.1 | 0.8 | 18 | 10.1 | 1.1 | 16.7 | 16.3 | 1.7 | 88.8 | 5.9 | EC50 (Aβ1-40 monomer [1]): ~4.3 nM; EC50 [2]: ~1.7 nM; ADDL:Fibrillar binding ratio [3]: 2; IC50 [4]: 15.3 nM; Ratio (Aβ monomer/ADDL) [5]: 6.2; Ratio (Aβ monomer/ADDL) [6]: 31; Kd [7]: 4.8 nM; ADDL:Monomer binding ratio [11]: 2.5; fold higher concentration of Aβ1-40 than of Aβ oligomers needed to displace 50% of 19.3 [12]: ~600 fold; IC50 [16]: 15.4 nM; Kd [17]: 2.7 nM; fold greater potency for Aβ oligomers than for Aβ40 monomer [23]: ~3.7 fold
2 | B2 |  |  | 15.7 | 3.1 | 244 | 332 | 15.5 |  | 307 | 11.6 | 96.3 | 23.5 | 
3 | B3 | 105 |  |  |  |  |  |  | 45 |  |  |  |  | 
4 | B4 |  | 24.3 | 12.8 | 1.7 | 150 | 55.1 | 7.8 |  | 59.1 | 8.6 | 29.9 | 10.1 | 
5 | B5 |  |  |  | 0.82 | 28 |  |  |  |  |  |  |  | 
